{"source": "patent US6897296", "biological_target": "bacterially expressed recombinant Mch4 (GST-Mch4 fusion protein) (human)", "note": "pKi: −log10 of the molar value.", "data": [{"substance": "DEVD-CHO (tetrapeptide DEVD aldehyde)", "values": [{"measurement": "pKi", "result": 7.85}]}]}
